Experimental findings from article PMC5027573, “Structural Analysis of the Hg(II)-Regulatory Protein Tn501 MerR from Pseudomonas aeruginosa” (Scientific Reports, 2016) are described below.

This series concerns the molecule itself. The experiment in a line: crystal structure; Hg(II)-bound truncated MerR (equimolar HgCl2); sitting-drop vapor diffusion at 16 °C, 0.1 M KCl, 0.01 M MgCl2, 0.1 M Tris pH 8.5, 30% PEG200; space group P3(1)21, one dimer in the asymmetric unit; Hg SAD, 2.8 Å.

B1: C-terminal truncated Tn501 MerR (MerRTC10), mercury(II)-bound (domain or fragment, Pseudomonas aeruginosa, UniProt P0A183 1-134, looked up)
chain: MENNLENLTIGVFAKAAGVNVETIRFYQRKGLLLEPDKPYGSIRRYGEADVTRVRFVKSAQRLGFSLDEIAELLRLEDGTHCEEASSLAEHKLKDVREKMADLARMEAVLSELVCACHARRGNVSCPLIASLQG
notes: Mercuric resistance operon regulatory protein MerR of transposon Tn501, Pseudomonas aeruginosa; the last ten C-terminal residues were truncated; synthesized and codon-optimized merR gene; also called Hg2+-MerR; C-terminally truncated Tn501 MerR; source: E. coli BL21 (DE3), pET-30a, purified (HiTrap Phenyl FF, HisTrap HF, Superdex200 gel filtration)
B1: the “stoichiometry N” value was determined as 2.

Usually stoichiometry N stands for the number of molecules, sites or subunits per partner or assembly.
